How the values were obtained:
[1] = system: transcription control region for exon 1b of human aromatase gene; test: Luciferase reporter assay, Ex1b-luc in HepG2 cell (expression of exon 1b of aromatase gene); assay type: cell-based; details: 20 hours
Experimental: The region containing transcription control region for exon 1b of human aromatase gene and a part of the exon 1b was amplified by PCR from genomic DNA extracted from human normal keratinocyte by using the following primers: […]
The resulting PCR product was treated with restriction enzymes SpeI and EcoRI, and incorporated in SpeI site and EcoRI site in SeaPansy null Control Vector (Toyo Ink Mfg. Co., Ltd.) to produce Ex1b-luc plasmid. This plasmid was used in the luciferase assay as will be described below.
Immortalized human hepatoma-derived cell (HepG2 cell) […]
The transfected cells were cultivated overnight, and plant extract prepared in Production Example 1, Table 2, or yeast extract (“YeastLiquid B”, Ichimaru Pharcos Co Ltd.), silk protein extract (“Silkgen G Soluble KE”, Ichimaru Pharcos Co Ltd.), milk protein (“Bioderma SX-14” Ichimaru Pharcos Co Ltd.), “lactoferrin S FREE”, Ichimaru Pharcos Co Ltd.), natto extract (“Soybean polymer F B-20”, Ichimaru Pharcos Co Ltd.), or royal jelly (“royal jelly extract”, Ichimaru Pharcos Co Ltd.) was added (1% or 0.1%), and the cultivation was continued for another 20 hours. After adding 20 μL of alamarBlue (BIOSOURCE), fluorescence intensity (excitation light 544 nm, fluorescence 590 nm) was measured. Luciferase activity was also measured by using PicaGene Dual SeaPansy Luminescence kit (Nippon Gene). […]

[2] = system: HepG2 cell; test: alamarBlue fluorescence in Ex1b-luc transfected HepG2 cell; assay type: cell-based, human; details: 20 hours
Experimental: Immortalized human hepatoma-derived cell (HepG2 cell)
HepG2 cell was inoculated to 96 well culture plate at 30,000 cells per well, and Ex1b-luc was introduced using lipofectamine reagent (Invitrogen) according to the protocol described in the attached manual. The DNA was used at an amount of 0.1 μg per well. The same procedure was repeated for control without adding the DNA (2 wells).
The transfected cells were cultivated overnight, and plant extract prepared in Production Example 1, Table 2, or yeast extract (“YeastLiquid B”, Ichimaru Pharcos Co Ltd.), silk protein extract (“Silkgen G Soluble KE”, Ichimaru Pharcos Co Ltd.), milk protein (“Bioderma SX-14” Ichimaru Pharcos Co Ltd.), “lactoferrin S FREE”, Ichimaru Pharcos Co Ltd.), natto extract (“Soybean polymer F B-20”, Ichimaru Pharcos Co Ltd.), or royal jelly (“royal jelly extract”, Ichimaru Pharcos Co Ltd.) was added (1% or 0.1%), and the cultivation was continued for another 20 hours. After adding 20 μL of alamarBlue (BIOSOURCE), fluorescence intensity (excitation light 544 nm, fluorescence 590 nm) was measured. Luciferase activity was also measured by using PicaGene Dual SeaPansy Luminescence kit (Nippon Gene). The cells were lysed by adding 25 μL per well of the lysis buffer that had been diluted 5× lysis buffer to 1× concentration.

B1: Lactoferrin: milk protein; commercial product "Lactoferrin S FREE" (Ichimaru Pharcos) (protein, UniProt P24627 20-708, looked up)
Lactotransferrin: APRKNVRWCTISQPEWFKCRRWQWRMKKLGAPSITCVRRAFALECIRAIAEKKADAVTLDGGMVFEAGRDPYKLRPVAAEIYGTKESPQTHYYAVAVVKKGSNFQLDQLQGRKSCHTGLGRSAGWIIPMGILRPYLSWTESLEPLQGAVAKFFSASCVPCIDRQAYPNLCQLCKGEGENQCACSSREPYFGYSGAFKCLQDGAGDVAFVKETTVFENLPEKADRDQYELLCLNNSRAPVDAFKECHLAQVPSHAVVARSVDGKEDLIWKLLSKAQEKFGKNKSRSFQLFGSPPGQRDLLFKDSALGFLRIPSKVDSALYLGSRYLTTLKNLRETAEEVKARYTRVVWCAVGPEEQKKCQQWSQQSGQNVTCATASTTDDCIVLVLKGEADALNLDGGYIYTAGKCGLVPVLAENRKSSKHSSLDCVLRPTEGYLAVAVVKKANEGLTWNSLKDKKSCHTAVDRTAGWNIPMGLIVNQTGSCAFDEFFSQSCAPGADPKSRLCALCAGDDQGLDKCVPNSKEKYYGYTGAFRCLAEDVGDVAFVKNDTVWENTNGESTADWAKNLNREDFRLLCLDGTRKPVTEAQSCHLAVAPNHAVVSRSDRAAHVKQVLLHQQALFGKNGKNCPDKFCLFKSETKNLLFNDNTECLAKLGGRPTYEEYLGTEYVTAIANLKKCSTSPLLEACAFLTR
[1]; added at 0.1%
  Luciferase activity: 155.2%
[1]; added at 1%
  Luciferase activity: 181.5%
[2]; added at 0.1%
  AlamarBlue activity: 135.9%
[2]; added at 1%
  AlamarBlue activity: 138.2%
